Test results: article PMC12452593

Biological target: EV-D68 US/MO/14-18947 viral particles (Enterovirus D68)

secreted MFSD6-Fc microbody (from UniProt Q6ZSS7 153-280) (Fc fusion)
survival rate of neonatal ICR mice (n = 9 per group) given 1.0 × 10^7 TCID50 of EV-D68 US/MO/14-18947 pre-incubated with 15 ug secMFSD6 Mb (secCtl Mb group: 11.11%): 88.9%
